T1: SoSL (Ac-651) (Streptomyces ochraceiscleroticus, UniProt A0ABW1MU60)
T1 construct: gene ACFP4F_27515
T1 sequence (A0ABW1MU60 37-329): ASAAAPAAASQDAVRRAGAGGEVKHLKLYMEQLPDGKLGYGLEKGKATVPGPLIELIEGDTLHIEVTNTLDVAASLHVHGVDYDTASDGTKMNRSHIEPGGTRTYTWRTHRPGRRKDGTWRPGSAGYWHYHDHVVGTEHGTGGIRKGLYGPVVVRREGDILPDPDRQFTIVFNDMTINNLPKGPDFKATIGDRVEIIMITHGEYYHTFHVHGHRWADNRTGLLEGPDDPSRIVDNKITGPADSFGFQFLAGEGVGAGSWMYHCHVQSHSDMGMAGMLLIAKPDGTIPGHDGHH

B1: SoSL (Ac-651) (Streptomyces ochraceiscleroticus) (protein)
chain: T1 sequence (A0ABW1MU60 37-329)
notes: TAT signal peptide removed (lacks 36 N-terminal residues of 329), pQE-30 His-tag, E. coli M15 [pREP4], Ni-sepharose; 33 kDa computed, ~35 kDa SDS-PAGE; trimeric

How the values were obtained:
SoSL (Ac-651) = target: T1, SoSL (Ac-651); details: pH 3.7; inhibitor
purified protein [1] = substrate: COc1cccc(OC)c1O; test: purified protein; format: biochemical, Streptomyces ochraceiscleroticus; details: pH 9.0, 30 °C, 50 mM Britton–Robinson buffer, free enzyme (b72 lists the two pH values in reversed order)
purified protein [2] = substrate: CCn1c(=NN=c2sc3cc(S(=O)(=O)O)ccc3n2CC)sc2cc(S(=O)(=O)O)ccc21; test: purified protein; format: biochemical, Streptomyces ochraceiscleroticus; details: pH 3.5, 30 °C, 50 mM Britton–Robinson buffer, free enzyme (b72 lists the two pH values in reversed order)

Molecule	10 mM (SoSL (Ac-651))	Km (purified protein [1])	kcat (purified protein [1])	Km (purified protein [2])	kcat (purified protein [2])
F [sodium fluoride]	67.8 ± 0.6%				
B1		760 µM	0.11 s⁻¹	50 µM	106 s⁻¹
